From patent US8287850B2, “Conjugates of hydroxyalkyl starch and a protein, prepared by reductive amination” (Fresenius Kabi Deutschland GmbH, priority 2004, dated 2012)

Assays:
[1] = tested on: normocythaemic mouse system; test: EPO-bioassay in the normocythaemic mouse system; format: in vivo
Protocol: Quantitative determination of EPO protein was performed by measuring UV absorption at 280 nm according to the Eur. Phar. (European Pharmacopeia 4, Monography 01/2002: 1316: erythropoietin concentrated solution) in a cuvette with 1 cm path length. In addition, EPO was quantitated by applying a RP-HPLC method using a RP-C4 column (Vydac Protein C4, Cat.#214TP5410, Grace Vydac, Ca, US); the HPLC method was calibrated using the erythropoietin BRP 1 reference standard (European Pharmacopeia, Conseil de l'Europe B.P. 907-F67029, Strasbourg Cedex 1).
The EPO-bioassay in the normocythaemic mouse system was performed according to the procedures described in the European Pharmacopeia 4, Monography 01/2002:1316: Erythropoietin concentrated solution and Ph. Eur. Chapter 5.3: “Statistical Analysis of Results of Biological Assays and Tests”; For the HES-modified EPO according to example 7.3 a value for the specific activity of 418 500 units per mg EPO of protein was measured indicating an approximately 4-5 fold higher specific activity when compared to the EPO starting material.

[2] = In vivo half-life of G-CSF samples in mice (ELISA of plasma); settings: 100 μg per kg i.v. tail vein, female BALB/c mice
Protocol: Female mice BALB/cOlaHsd (Harlan GmbH/Borchen) were used. On the day of administration, the is weights of the animals were measured (19-22 g). 100 μg per kg body weight of the chemically modified rh-G-CSF sample as prepared in Example 6.2(b) as well as Neupogen® and Neulasta® (Amgen) samples were each injected intravenously in the tail vein of nine mice. At 1, 3, 6, 11, 22, 30, 49, 72 hours after injection (see table below), samples of approx. 150 μl whole blood were taken from the tail vein or the retrobulbar venous plexus from 3 mice of the respective group using capillaries containing sodium-heparin (Hirschmann, Eberstadt) and stored on ice until preparation of plasma.
Whole blood was centrifuged for 10 minutes at 2000 g. Plasma was transferred to another tube and recentrifuged for 5 min at 3500 g. Aliquots were stored at −80° C. until the day of analysis. The amount of G-CSF in the plasma samples were quantified by utilizing a ELISA (R&D GambH, Wiesbaden) method, following the instruction of the manufacturer.

[3] = tested on: mouse NFS-60 cells; test: Mitogenicity of G-CSF variants for mouse NFS-60 cells (Example 6.3); format: cell-based; settings: 3 days
Protocol: G-CSF is known for its specific effects on the proliferation, differentiation and activation of hematopoietic cells of the neutrophilic granulocyte lineage. The mitogenic capacity of G-CSF variants was tested using mouse NFS-60 cells (N. Shirafuji et al., Exp. Hematol. 1989, 17, 116-119). Cells grown in RPMI medium with 10% fetal calf serum (Gibco INVITROGEN GmbH, Karlsruhe, D) containing 5-10% WEHI-3B (DSMZ, Braunschweig, D; cultivated as described by the DSMZ) conditioned medium as source of exogenous IL-3 were harvested by centrifugation, washed and aliquoted at 100,000 cells per well in a 24-well plate. Cells were allowed to adapt for 1 hour at 37° C. in RPMI medium without WEHI-3B conditioned media before G-CSF growth factor samples diluted in the same media were added. NFS-60 cells were exposed to purified G-CSF variants (purification according to examples 3A 1 und 2, protein quantification according to example 3B1):
“Mock incubation” (=reaction control, 197 mg/ml HES50/0.7, MW 47,000 D, DS 0.76, Supramol Parenteral Colloids GmbH, Rosbach Rodheim, Germany), for 3 days at 37° C. and then the cells were electronically counted (Casy TT Cell Counter, Schärfe System, Reutlingen, D).
In all cases, the amounts of protein given in the table below and FIG. 21 represent the G-CSF content of the conjugates only. […] All variants reached the same maximum stimulation level at a concentration of 250 pg/ml.

[4] = Conc. 250 pg/ml (G-CSF content)

Q: For “EPO starting material (not modified): recombinant human EPO, essentially same characteristics as Erypo or NeoRecormon”, which “Calculated specific activity of EPO sample (based on A280 and RP-HPLC determination)” value (shortened to “Calculated specific activity”) ([1]; mouse, in vivo) is on record?
A: 89000 U/mg

Q: For “EPO starting material (Reaction control A): EPO reacted with aldehydo-HES without sodium cyanoborohydride (example 7.4)”, which “Calculated specific activity” value ([1]; mouse, in vivo) is on record?
A: 88500 U/mg

Q: With “EPO HES according to example 7.3: recombinant human EPO conjugated with aldehydo-HES of example 7.2 (MW 57,000 D, DS 0.76) by reductive amination” as the molecule, how does the “Calculated specific activity” value ([1]; mouse, in vivo) read?
A: 418500 U/mg

Q: And the “higher specific activity when compared to the EPO starting material” value ([1]; mouse, in vivo)?
A: 4-5 fold

Q: And the specific activity ([1]; per mg EPO of protein)?
A: 418 500 units per mg

B1: HES-GCSF 50/0.7: hG-CSF conjugated with AldehydoHES50/0.7 of example 6.1(j), prepared in example 6.2(b) (conjugate, UniProt P09919 31-207, looked up)
Granulocyte …: TPLGPASSLPQSFLLKCLEQVRKIQGDGAALQEKLVSECATYKLCHPEELVLLGHSLGIPWAPLSSCPSQALQLAGCLSQLHSGLFLYQGLLQALEGISPELGPTLDTLQLDVADFATTIWQQMEELGMAPALQPTQGAMPAFASAFQRRAGGVLVASHLQSFLEVSYRVLRHLAQP
modifications: hydroxyethyl starch conjugate HES50/0.7
Q: With B1 as the molecule, how does the half-life [2] read?
A: 5.1 h

Q: And the “Proliferation of mouse NFS-60 cells, induced by G-CSF variants” value (from here on “Proliferation of mouse NFS-60 cells”) ([3]; Conc. 5 pg/ml (G-CSF content))?
A: 0.70

Q: What about the “Proliferation of mouse NFS-60 cells” value ([3]; Conc. 10 pg/ml (G-CSF content)) of the same molecule?
A: 0.97

Q: And the “Proliferation of mouse NFS-60 cells” value ([3]; Conc. 25 pg/ml (G-CSF content))?
A: 1.68

Q: And the “Proliferation of mouse NFS-60 cells” value ([3]; Conc. 50 pg/ml (G-CSF content))?
A: 2.15

Q: And the “Proliferation of mouse NFS-60 cells” value [3, 4]?
A: 2.32

B2: Mock-incubation: reaction control: hG-CSF incubated with 197 mg/ml non-functionalized HES50/0.7 (MW 47,000 D, DS 0.76) (protein, UniProt P09919 31-207, looked up)
Granulocyte …: TPLGPASSLPQSFLLKCLEQVRKIQGDGAALQEKLVSECATYKLCHPEELVLLGHSLGIPWAPLSSCPSQALQLAGCLSQLHSGLFLYQGLLQALEGISPELGPTLDTLQLDVADFATTIWQQMEELGMAPALQPTQGAMPAFASAFQRRAGGVLVASHLQSFLEVSYRVLRHLAQP
modifications: mixed with non-functionalized HES
Q: Which “Proliferation of mouse NFS-60 cells” value ([3]; Conc. 5 pg/ml (G-CSF content)) does the source give for B2 here?
A: 1.31

Q: And the “Proliferation of mouse NFS-60 cells” value ([3]; Conc. 10 pg/ml (G-CSF content))?
A: 1.91

Q: What about the “Proliferation of mouse NFS-60 cells” value ([3]; Conc. 25 pg/ml (G-CSF content)) of the same molecule?
A: 2.38

Q: What about the “Proliferation of mouse NFS-60 cells” value ([3]; Conc. 50 pg/ml (G-CSF content)) of the same molecule?
A: 2.47

Q: What about the “Proliferation of mouse NFS-60 cells” value [3, 4] of the same molecule?
A: 2.41

B3: HES-GCSF 30/0.4: hG-CSF conjugated with AldehydoHES30/0.4 of example 6.1(f), prepared in example 6.2(d) (conjugate, UniProt P09919 31-207, looked up)
Granulocyte …: TPLGPASSLPQSFLLKCLEQVRKIQGDGAALQEKLVSECATYKLCHPEELVLLGHSLGIPWAPLSSCPSQALQLAGCLSQLHSGLFLYQGLLQALEGISPELGPTLDTLQLDVADFATTIWQQMEELGMAPALQPTQGAMPAFASAFQRRAGGVLVASHLQSFLEVSYRVLRHLAQP
modifications: hydroxyethyl starch conjugate HES30/0.4
Q: What does the source list for B3?
A: Proliferation of mouse NFS-60 cells, induced by G-CSF variants ([3]; Conc. 5 pg/ml (G-CSF content)): 1.21; Proliferation of mouse NFS-60 cells, induced by G-CSF variants ([3]; Conc. 10 pg/ml (G-CSF content)): 1.62; Proliferation of mouse NFS-60 cells, induced by G-CSF variants ([3]; Conc. 25 pg/ml (G-CSF content)): 2.28; Proliferation of mouse NFS-60 cells, induced by G-CSF variants ([3]; Conc. 50 pg/ml (G-CSF content)): 2.50; Proliferation of mouse NFS-60 cells, induced by G-CSF variants [3, 4]: 2.60

B4: HES-GCSF 10/0.4: hG-CSF conjugated with AldehydoHES10/0.4 of example 6.1(b), prepared in example 6.2(b) (conjugate, UniProt P09919 31-207, looked up)
Granulocyte …: TPLGPASSLPQSFLLKCLEQVRKIQGDGAALQEKLVSECATYKLCHPEELVLLGHSLGIPWAPLSSCPSQALQLAGCLSQLHSGLFLYQGLLQALEGISPELGPTLDTLQLDVADFATTIWQQMEELGMAPALQPTQGAMPAFASAFQRRAGGVLVASHLQSFLEVSYRVLRHLAQP
modifications: hydroxyethyl starch conjugate HES10/0.4
Q: What does the source list for B4?
A: Proliferation of mouse NFS-60 cells, induced by G-CSF variants ([3]; Conc. 5 pg/ml (G-CSF content)): 0.97; Proliferation of mouse NFS-60 cells, induced by G-CSF variants ([3]; Conc. 10 pg/ml (G-CSF content)): 1.40; Proliferation of mouse NFS-60 cells, induced by G-CSF variants ([3]; Conc. 25 pg/ml (G-CSF content)): 2.17; Proliferation of mouse NFS-60 cells, induced by G-CSF variants ([3]; Conc. 50 pg/ml (G-CSF content)): 2.67; Proliferation of mouse NFS-60 cells, induced by G-CSF variants [3, 4]: 2.75

B5: Neupogen: non-modified Neupogen (Amgen), rhG-CSF filgrastim, non-glycosylated, E. coli (protein, UniProt P09919 31-207, looked up)
Granulocyte …: TPLGPASSLPQSFLLKCLEQVRKIQGDGAALQEKLVSECATYKLCHPEELVLLGHSLGIPWAPLSSCPSQALQLAGCLSQLHSGLFLYQGLLQALEGISPELGPTLDTLQLDVADFATTIWQQMEELGMAPALQPTQGAMPAFASAFQRRAGGVLVASHLQSFLEVSYRVLRHLAQP
modifications: filgrastim, N-terminal Met
notes: non-modified Neupogen (Amgen), rhG-CSF filgrastim, non-glycosylated, E. coli
Q: Which half-life [2] does the source give for B5 here?
A: 1.2 h

Q: What about the “Proliferation of mouse NFS-60 cells” value ([3]; Conc. 5 pg/ml (G-CSF content)) of the same molecule?
A: 1.20

Q: And the “Proliferation of mouse NFS-60 cells” value ([3]; Conc. 10 pg/ml (G-CSF content))?
A: 1.69

Q: And the “Proliferation of mouse NFS-60 cells” value ([3]; Conc. 25 pg/ml (G-CSF content))?
A: 2.33

Q: What about the “Proliferation of mouse NFS-60 cells” value ([3]; Conc. 50 pg/ml (G-CSF content)) of the same molecule?
A: 2.49

Q: What about the “Proliferation of mouse NFS-60 cells” value [3, 4] of the same molecule?
A: 2.41

B6: HES-GCSF 10/0.7: hG-CSF conjugated with AldehydoHES10/0.7 of example 6.1(d), prepared in example 6.2(b) (conjugate, UniProt P09919 31-207, looked up)
Granulocyte …: TPLGPASSLPQSFLLKCLEQVRKIQGDGAALQEKLVSECATYKLCHPEELVLLGHSLGIPWAPLSSCPSQALQLAGCLSQLHSGLFLYQGLLQALEGISPELGPTLDTLQLDVADFATTIWQQMEELGMAPALQPTQGAMPAFASAFQRRAGGVLVASHLQSFLEVSYRVLRHLAQP
modifications: hydroxyethyl starch conjugate HES10/0.7
Q: Which results are given for B6?
A: Proliferation of mouse NFS-60 cells, induced by G-CSF variants ([3]; Conc. 5 pg/ml (G-CSF content)): 0.93; Proliferation of mouse NFS-60 cells, induced by G-CSF variants ([3]; Conc. 10 pg/ml (G-CSF content)): 1.44; Proliferation of mouse NFS-60 cells, induced by G-CSF variants ([3]; Conc. 25 pg/ml (G-CSF content)): 2.14; Proliferation of mouse NFS-60 cells, induced by G-CSF variants ([3]; Conc. 50 pg/ml (G-CSF content)): 2.41; Proliferation of mouse NFS-60 cells, induced by G-CSF variants [3, 4]: 2.41

B7: Neulasta: non-modified Neulasta (Amgen) (conjugate, UniProt P09919 31-207, looked up)
Granulocyte …: TPLGPASSLPQSFLLKCLEQVRKIQGDGAALQEKLVSECATYKLCHPEELVLLGHSLGIPWAPLSSCPSQALQLAGCLSQLHSGLFLYQGLLQALEGISPELGPTLDTLQLDVADFATTIWQQMEELGMAPALQPTQGAMPAFASAFQRRAGGVLVASHLQSFLEVSYRVLRHLAQP
modifications: pegfilgrastim; 20 kDa PEG
Q: Which results are given for B7?
A: half-life [2]: 5.2 h; Proliferation of mouse NFS-60 cells, induced by G-CSF variants ([3]; Conc. 5 pg/ml (G-CSF content)): 0.80; Proliferation of mouse NFS-60 cells, induced by G-CSF variants ([3]; Conc. 10 pg/ml (G-CSF content)): 1.12; Proliferation of mouse NFS-60 cells, induced by G-CSF variants ([3]; Conc. 25 pg/ml (G-CSF content)): 1.83; Proliferation of mouse NFS-60 cells, induced by G-CSF variants ([3]; Conc. 50 pg/ml (G-CSF content)): 2.25; Proliferation of mouse NFS-60 cells, induced by G-CSF variants [3, 4]: 2.33
